# T1: She3p (334-425) (Saccharomyces cerevisiae, UniProt P38272 334-425)
# T1 sequence: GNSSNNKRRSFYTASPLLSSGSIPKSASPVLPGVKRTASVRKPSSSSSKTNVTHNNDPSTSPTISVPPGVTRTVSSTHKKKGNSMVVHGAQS
# T2: She3p (S343E S361E) (Saccharomyces cerevisiae, UniProt P38272 1-425, S343E;S361E)
# T2 sequence: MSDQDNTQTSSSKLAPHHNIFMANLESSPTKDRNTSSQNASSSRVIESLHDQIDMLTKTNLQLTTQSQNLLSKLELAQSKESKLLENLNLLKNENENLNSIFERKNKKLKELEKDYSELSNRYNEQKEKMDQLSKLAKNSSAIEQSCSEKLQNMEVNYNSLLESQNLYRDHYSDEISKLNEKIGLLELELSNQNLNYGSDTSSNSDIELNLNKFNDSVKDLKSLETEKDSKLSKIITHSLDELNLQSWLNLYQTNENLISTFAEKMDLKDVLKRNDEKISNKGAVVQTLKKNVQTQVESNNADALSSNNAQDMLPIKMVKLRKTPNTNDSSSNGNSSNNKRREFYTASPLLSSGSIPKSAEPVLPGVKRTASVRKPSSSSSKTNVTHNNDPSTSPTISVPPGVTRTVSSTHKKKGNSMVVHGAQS
# T3: She3p (Saccharomyces cerevisiae, UniProt P38272 1-425)
# T3 sequence: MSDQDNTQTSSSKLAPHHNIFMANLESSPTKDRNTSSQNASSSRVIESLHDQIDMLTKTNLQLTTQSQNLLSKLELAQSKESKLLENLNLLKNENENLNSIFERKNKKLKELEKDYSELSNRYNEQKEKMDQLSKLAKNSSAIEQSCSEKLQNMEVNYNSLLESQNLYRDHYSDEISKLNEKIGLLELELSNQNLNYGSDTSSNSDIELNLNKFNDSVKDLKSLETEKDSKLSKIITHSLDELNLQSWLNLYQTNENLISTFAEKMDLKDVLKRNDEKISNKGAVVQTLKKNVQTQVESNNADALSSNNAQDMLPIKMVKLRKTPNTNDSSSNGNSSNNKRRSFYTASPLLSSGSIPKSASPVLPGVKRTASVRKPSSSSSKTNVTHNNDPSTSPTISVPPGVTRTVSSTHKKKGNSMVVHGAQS
# Experiments:
# [1] = target: Puf6p (Saccharomyces cerevisiae, UniProt Q04373 2-656); experiment: EMSA; EMSA: 20 mM HEPES pH 7.8, 200 mM NaCl, 2 mM MgCl2, 2 mM DTT, 4% glycerol, 30 or 100 ug/ml yeast tRNA, 5 nM RNA, 20 C; filter binding: 20 mM HEPES pH 7.4-7.5 (7.9 with She3p), 150 mM NaCl, 2 mM MgCl2, 2 mM DTT, 30 ug/ml yeast tRNA, 0.5 nM RNA; pull-down: HNMD buffer, 4 C; details: protein: recombinant; tags: GST tag (cleaved for EMSA; retained in GST pull-downs); label: 32P; stem-loop
# Puf6p, sequence (Q04373 2-656): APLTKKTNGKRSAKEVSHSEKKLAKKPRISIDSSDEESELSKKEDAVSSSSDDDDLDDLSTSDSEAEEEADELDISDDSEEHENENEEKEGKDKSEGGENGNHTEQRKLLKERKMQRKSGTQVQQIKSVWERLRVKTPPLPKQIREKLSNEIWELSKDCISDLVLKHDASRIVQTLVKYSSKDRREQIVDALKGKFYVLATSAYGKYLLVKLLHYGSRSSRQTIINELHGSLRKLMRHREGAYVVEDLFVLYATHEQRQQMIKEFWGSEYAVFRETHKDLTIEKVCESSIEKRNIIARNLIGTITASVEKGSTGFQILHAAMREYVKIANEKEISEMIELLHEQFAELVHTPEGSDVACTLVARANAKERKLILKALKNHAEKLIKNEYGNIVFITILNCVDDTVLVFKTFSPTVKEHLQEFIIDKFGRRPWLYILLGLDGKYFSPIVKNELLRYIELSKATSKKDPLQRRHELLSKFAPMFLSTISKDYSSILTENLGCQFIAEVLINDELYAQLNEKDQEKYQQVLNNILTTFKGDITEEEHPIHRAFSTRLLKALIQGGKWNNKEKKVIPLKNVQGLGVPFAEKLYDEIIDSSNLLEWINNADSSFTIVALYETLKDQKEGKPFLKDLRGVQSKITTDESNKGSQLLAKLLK
# [2] = target: T1, She3p (334-425); experiment: EMSA; +++; EMSA: 20 mM HEPES pH 7.8, 200 mM NaCl, 2 mM MgCl2, 2 mM DTT, 4% glycerol, 30 or 100 ug/ml yeast tRNA, 5 nM RNA, 20 C; filter binding: 20 mM HEPES pH 7.4-7.5 (7.9 with She3p), 150 mM NaCl, 2 mM MgCl2, 2 mM DTT, 30 ug/ml yeast tRNA, 0.5 nM RNA; pull-down: HNMD buffer, 4 C; details: protein: recombinant; tags: MBP and His6 (EMSA); His6 (SEC, cross-linking); label: 32P; stem-loop
# [3] = target: T2, She3p (S343E S361E); experiment: as above; details: protein: recombinant; tags: C-terminal His6; label: 32P; stem-loop
# [4] = target: She2p (Saccharomyces cerevisiae, UniProt P36068 1-246); experiment: filter binding; +++ reference; EMSA: 20 mM HEPES pH 7.8, 200 mM NaCl, 2 mM MgCl2, 2 mM DTT, 4% glycerol, 30 or 100 ug/ml yeast tRNA, 5 nM RNA, 20 C; filter binding: 20 mM HEPES pH 7.4-7.5 (7.9 with She3p), 150 mM NaCl, 2 mM MgCl2, 2 mM DTT, 30 ug/ml yeast tRNA, 0.5 nM RNA; pull-down: HNMD buffer, 4 C; details: protein: recombinant; tags: GST tag (PreScission-cleaved); chain copies: 4; label: 32P; stem-loop
# She2p, sequence (P36068 whole entry): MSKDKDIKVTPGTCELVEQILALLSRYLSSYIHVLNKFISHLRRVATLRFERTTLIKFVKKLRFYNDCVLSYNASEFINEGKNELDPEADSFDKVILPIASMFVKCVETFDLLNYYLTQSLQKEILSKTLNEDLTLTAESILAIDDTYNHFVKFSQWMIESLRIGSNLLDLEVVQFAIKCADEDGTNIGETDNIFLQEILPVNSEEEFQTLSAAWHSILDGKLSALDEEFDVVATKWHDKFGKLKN
# [5] = target: T3, She3p; experiment: EMSA; minimal She3p concentration for detection; EMSA: 20 mM HEPES pH 7.8, 200 mM NaCl, 2 mM MgCl2, 2 mM DTT, 4% glycerol, 30 or 100 ug/ml yeast tRNA, 5 nM RNA, 20 C; filter binding: 20 mM HEPES pH 7.4-7.5 (7.9 with She3p), 150 mM NaCl, 2 mM MgCl2, 2 mM DTT, 30 ug/ml yeast tRNA, 0.5 nM RNA; pull-down: HNMD buffer, 4 C; details: protein: recombinant; tags: C-terminal His6; label: 32P; stem-loop
# [6] = target: She2p (ΔC);She3p (Saccharomyces cerevisiae;Saccharomyces …, UniProt P36068;P38272 1-240;1-425, |); experiment: EMSA; She3p 25 nM; at least 25 nM She2p(ΔC) required; EMSA: 20 mM HEPES pH 7.8, 200 mM NaCl, 2 mM MgCl2, 2 mM DTT, 4% glycerol, 30 or 100 ug/ml yeast tRNA, 5 nM RNA, 20 C; filter binding: 20 mM HEPES pH 7.4-7.5 (7.9 with She3p), 150 mM NaCl, 2 mM MgCl2, 2 mM DTT, 30 ug/ml yeast tRNA, 0.5 nM RNA; pull-down: HNMD buffer, 4 C; details: protein: recombinant;recombinant; tags: GST tag (PreScission-cleaved);C-terminal His6; label: 32P; stem-loop
# She2p (ΔC);She3p, sequence (P36068 1-240, stated change not applied, one chain of several): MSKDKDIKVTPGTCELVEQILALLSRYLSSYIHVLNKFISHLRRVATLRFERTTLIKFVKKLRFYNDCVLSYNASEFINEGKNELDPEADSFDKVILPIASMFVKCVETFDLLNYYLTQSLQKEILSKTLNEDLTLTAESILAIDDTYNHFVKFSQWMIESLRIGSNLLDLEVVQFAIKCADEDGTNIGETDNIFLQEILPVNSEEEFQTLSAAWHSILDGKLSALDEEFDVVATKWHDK
binder,measurement,setting,value
ASH1 E3-118 (structured_RNA) RNA: GAGACAGUAGAGAAUUGAUACAUGGAUAACUGAAUCUCUUUCAACUAAUAAGAGACAUUAUCACGAAACAAUUGUACAUUUCUCUCCUUGUCUGUGCUAAAUAAACUACAAAUAAAAA,binding result,[1],binds
same,binding result,[2],binds
same,binding result,[3],binds
same,binding result,[4],binds
same,binding result,[5],binds
same,binding signal,[6],~5 fold reduced

# Source: article PMC3079584, “A Cytoplasmic Complex Mediates Specific mRNA Recognition and Localization in Yeast”
